Substrate in data set [1]: NC(=O)OP(=O)(O)O
Nature of the data set: purified protein. In kind it is biochemical, Escherichia coli. The conditions noted are these: 50 mM Tris pH 8.5, 20 °C, 20 mM NaCl.

Data set [2] concerns the molecule itself. The experiment in a line: SEC-SAXS; in-line SEC-SAXS on a Superdex 200 5/150 GL column; enzyme at 4.3-5.5 mg/mL; apo state, and after incubation with 5 mM CP or 10 mM ORN; self-association of the enzyme (trimer).
Substrate in data set [3]: NCCC[C@H](N)C(=O)O
Nature of the data set: purified protein. The conditions noted are these: 50 mM Tris pH 8.5, 20 °C, 20 mM NaCl, carbamoyl phosphate 5 mM.

The mark [4] stands for this setting: ornithine 60 mM (variants with ORN KM above 3 mM).

B1: OTC (E. coli ornithine transcarbamoylase, argI) (Escherichia coli K-12; H273L) (protein)
chain: SGFYHKHFLKLLDFTPAELNSLLQLAAKLKADKKSGKEEAKLTGKNIALIFEKDSTRTRCSFEVAAYDQGARVTYLGPSGSQIGHKESIKDTARVLGRMYDGIQYRGYGQEIVETLAEYASVPVWNGLTNEFHPTQLLADLLTMQEHLPGKAFNEMTLVYAGDARNNMGNSMLEAAALTGLDLRLVAPQACWPEAALVTECRALAQQNGGNITLTEDVAKGVEGADFIYTDVWVSMGEAKEKWAERIALLREYQVNSKMMQLTGNPEVKFLLCLPAFHDDQTTLGKKMAEEFGLHGGMEVTDEVFESAASIVFDQAENRMHTIKAVMVATLSK
notes: full length, uncleaved 6xHis tag, pCA24N ASKA clone, expressed in BL21(DE3) Tuner; homotrimer of 333-residue subunits
For B1, in “purified protein [1]” (ornithine 3 mM), the Michaelis-Menten constant (Km) amounted to 930 ± 580 µM, the turnover number (kcat) worked out at 4.2 ± 1.8 s⁻¹ and the catalytic efficiency (kcat/Km) came to 5000 ± 1100 M⁻¹ s⁻¹.

B2: Escherichia coli ornithine transcarbamoylase (OTC) variant Y160F, His-tagged (enzyme, E. coli)
chain: SGFYHKHFLKLLDFTPAELNSLLQLAAKLKADKKSGKEEAKLTGKNIALIFEKDSTRTRCSFEVAAYDQGARVTYLGPSGSQIGHKESIKDTARVLGRMYDGIQYRGYGQEIVETLAEYASVPVWNGLTNEFHPTQLLADLLTMQEHLPGKAFNEMTLVFAGDARNNMGNSMLEAAALTGLDLRLVAPQACWPEAALVTECRALAQQNGGNITLTEDVAKGVEGADFIYTDVWVSMGEAKEKWAERIALLREYQVNSKMMQLTGNPEVKFLHCLPAFHDDQTTLGKKMAEEFGLHGGMEVTDEVFESAASIVFDQAENRMHTIKAVMVATLSK
notes: Anabolic ornithine transcarbamoylase of E. coli, argI gene, 333-residue subunit; Made by site-directed mutagenesis of the ASKA pCA24N plasmid; 6x-His tag not cleaved; source: E. coli BL21 (DE3) Tuner, purified (HisTrap FF, Superdex 200 SEC)
Consider B2, for which, in data set [2], the binding result is “binds”.

B3: Escherichia coli ornithine transcarbamoylase (OTC), wild type, His-tagged (enzyme, E. coli)
chain: SGFYHKHFLKLLDFTPAELNSLLQLAAKLKADKKSGKEEAKLTGKNIALIFEKDSTRTRCSFEVAAYDQGARVTYLGPSGSQIGHKESIKDTARVLGRMYDGIQYRGYGQEIVETLAEYASVPVWNGLTNEFHPTQLLADLLTMQEHLPGKAFNEMTLVYAGDARNNMGNSMLEAAALTGLDLRLVAPQACWPEAALVTECRALAQQNGGNITLTEDVAKGVEGADFIYTDVWVSMGEAKEKWAERIALLREYQVNSKMMQLTGNPEVKFLHCLPAFHDDQTTLGKKMAEEFGLHGGMEVTDEVFESAASIVFDQAENRMHTIKAVMVATLSK
notes: Anabolic ornithine transcarbamoylase of E. coli, argI gene, 333-residue subunit; Expressed from the ASKA plasmid pCA24N; also called WT OTC; anabolic OTC; source: E. coli BL21 (DE3) Tuner, purified (HisTrap FF, Superdex 200 SEC)
With B3, in “purified protein [3]”, the Km was 530 ± 55 µM, the kcat is 440 s⁻¹ and the kcat/Km amounted to 830000 M⁻¹ s⁻¹. Further, in the data set “purified protein [1]” (ornithine 3 mM), the Km is 270 ± 34 µM, the kcat stood at 410 ± 20 s⁻¹ and the specificity constant (kcat/Km) is 1.5e+06 ± 130000 M⁻¹ s⁻¹. Besides, in data set [2], the “stoichiometry N” value came out at 3.

B4: OTC (E. coli ornithine transcarbamoylase, argI) (Escherichia coli K-12; D141N) (protein)
chain: SGFYHKHFLKLLDFTPAELNSLLQLAAKLKADKKSGKEEAKLTGKNIALIFEKDSTRTRCSFEVAAYDQGARVTYLGPSGSQIGHKESIKDTARVLGRMYDGIQYRGYGQEIVETLAEYASVPVWNGLTNEFHPTQLLANLLTMQEHLPGKAFNEMTLVYAGDARNNMGNSMLEAAALTGLDLRLVAPQACWPEAALVTECRALAQQNGGNITLTEDVAKGVEGADFIYTDVWVSMGEAKEKWAERIALLREYQVNSKMMQLTGNPEVKFLHCLPAFHDDQTTLGKKMAEEFGLHGGMEVTDEVFESAASIVFDQAENRMHTIKAVMVATLSK
notes: as for B1
With B4, in “purified protein [3]”, the Km amounted to 17000 ± 5900 µM, the catalytic constant (kcat) is 460 s⁻¹ and the catalytic efficiency (kcat/Km) stood at 30000 M⁻¹ s⁻¹. Besides, in the data set “purified protein [1]” (setting [4]), the Km was 1400 ± 450 µM, the catalytic constant (kcat) stood at 360 ± 59 s⁻¹ and the specificity constant (kcat/Km) stood at 290000 ± 90000 M⁻¹ s⁻¹.

B5: Escherichia coli ornithine transcarbamoylase (OTC) variant Y229F, His-tagged (enzyme, E. coli)
chain: SGFYHKHFLKLLDFTPAELNSLLQLAAKLKADKKSGKEEAKLTGKNIALIFEKDSTRTRCSFEVAAYDQGARVTYLGPSGSQIGHKESIKDTARVLGRMYDGIQYRGYGQEIVETLAEYASVPVWNGLTNEFHPTQLLADLLTMQEHLPGKAFNEMTLVYAGDARNNMGNSMLEAAALTGLDLRLVAPQACWPEAALVTECRALAQQNGGNITLTEDVAKGVEGADFIFTDVWVSMGEAKEKWAERIALLREYQVNSKMMQLTGNPEVKFLHCLPAFHDDQTTLGKKMAEEFGLHGGMEVTDEVFESAASIVFDQAENRMHTIKAVMVATLSK
notes: as for B2
Take B5: in data set [2], the binding result is listed as “binds”.

B6: OTC (E. coli ornithine transcarbamoylase, argI) (Escherichia coli K-12; R58A) (protein)
chain: SGFYHKHFLKLLDFTPAELNSLLQLAAKLKADKKSGKEEAKLTGKNIALIFEKDSTATRCSFEVAAYDQGARVTYLGPSGSQIGHKESIKDTARVLGRMYDGIQYRGYGQEIVETLAEYASVPVWNGLTNEFHPTQLLADLLTMQEHLPGKAFNEMTLVYAGDARNNMGNSMLEAAALTGLDLRLVAPQACWPEAALVTECRALAQQNGGNITLTEDVAKGVEGADFIYTDVWVSMGEAKEKWAERIALLREYQVNSKMMQLTGNPEVKFLHCLPAFHDDQTTLGKKMAEEFGLHGGMEVTDEVFESAASIVFDQAENRMHTIKAVMVATLSK
notes: as for B1
For the protein B6, in the data set “purified protein [3]”, the Km was determined as 440 ± 92 µM, the kcat was 8.2 s⁻¹ and the kcat/Km was 19000 M⁻¹ s⁻¹. Moreover, in the data set “purified protein [1]” (ornithine 3 mM), the Km stood at 280 ± 27 µM, the kcat was 7.5 ± 1.8 s⁻¹ and the kcat/Km amounted to 27000 ± 7300 M⁻¹ s⁻¹.

B7: Escherichia coli ornithine transcarbamoylase (OTC) variant D231A, His-tagged (enzyme, E. coli)
chain: SGFYHKHFLKLLDFTPAELNSLLQLAAKLKADKKSGKEEAKLTGKNIALIFEKDSTRTRCSFEVAAYDQGARVTYLGPSGSQIGHKESIKDTARVLGRMYDGIQYRGYGQEIVETLAEYASVPVWNGLTNEFHPTQLLADLLTMQEHLPGKAFNEMTLVYAGDARNNMGNSMLEAAALTGLDLRLVAPQACWPEAALVTECRALAQQNGGNITLTEDVAKGVEGADFIYTAVWVSMGEAKEKWAERIALLREYQVNSKMMQLTGNPEVKFLHCLPAFHDDQTTLGKKMAEEFGLHGGMEVTDEVFESAASIVFDQAENRMHTIKAVMVATLSK
notes: as for B2
Regarding B7, in “purified protein [3]”, the Km was 590 ± 330 µM, the catalytic constant (kcat) was 0.7 s⁻¹ and the specificity constant (kcat/Km) came out at 1400 M⁻¹ s⁻¹. Further, in “purified protein [1]” (ornithine 3 mM), the Km came out at 150 ± 42 µM, the turnover number (kcat) is 0.48 ± 0.1 s⁻¹ and the kcat/Km came out at 3400 ± 1300 M⁻¹ s⁻¹. Moreover, the binding result in data set [2] is “binds”.

B8: Escherichia coli ornithine transcarbamoylase (OTC) variant Y160S, His-tagged (enzyme, E. coli)
chain: SGFYHKHFLKLLDFTPAELNSLLQLAAKLKADKKSGKEEAKLTGKNIALIFEKDSTRTRCSFEVAAYDQGARVTYLGPSGSQIGHKESIKDTARVLGRMYDGIQYRGYGQEIVETLAEYASVPVWNGLTNEFHPTQLLADLLTMQEHLPGKAFNEMTLVSAGDARNNMGNSMLEAAALTGLDLRLVAPQACWPEAALVTECRALAQQNGGNITLTEDVAKGVEGADFIYTDVWVSMGEAKEKWAERIALLREYQVNSKMMQLTGNPEVKFLHCLPAFHDDQTTLGKKMAEEFGLHGGMEVTDEVFESAASIVFDQAENRMHTIKAVMVATLSK
notes: as for B2
With B8, in the data set “purified protein [3]”, the Km turned out to be 7300 ± 2000 µM, the turnover number (kcat) came to 410 s⁻¹ and the kcat/Km was 61000 M⁻¹ s⁻¹. Besides, the binding result in data set [2] is on record as “binds”.

B9: Escherichia coli ornithine transcarbamoylase (OTC) variant Q104L, His-tagged (enzyme, E. coli)
chain: SGFYHKHFLKLLDFTPAELNSLLQLAAKLKADKKSGKEEAKLTGKNIALIFEKDSTRTRCSFEVAAYDQGARVTYLGPSGSQIGHKESIKDTARVLGRMYDGILYRGYGQEIVETLAEYASVPVWNGLTNEFHPTQLLADLLTMQEHLPGKAFNEMTLVYAGDARNNMGNSMLEAAALTGLDLRLVAPQACWPEAALVTECRALAQQNGGNITLTEDVAKGVEGADFIYTDVWVSMGEAKEKWAERIALLREYQVNSKMMQLTGNPEVKFLHCLPAFHDDQTTLGKKMAEEFGLHGGMEVTDEVFESAASIVFDQAENRMHTIKAVMVATLSK
notes: Anabolic ornithine transcarbamoylase of E. coli, argI gene, 333-residue subunit; Made by site-directed mutagenesis of the ASKA pCA24N plasmid; 6x-His tag not cleaved; also called negative control; source: E. coli BL21 (DE3) Tuner, purified (HisTrap FF, Superdex 200 SEC)
In the case of B9, the binding result in data set [2] is recorded as “binds”.

B10: Escherichia coli ornithine transcarbamoylase (OTC) variant S61A, His-tagged (enzyme, E. coli)
chain: SGFYHKHFLKLLDFTPAELNSLLQLAAKLKADKKSGKEEAKLTGKNIALIFEKDSTRTRCAFEVAAYDQGARVTYLGPSGSQIGHKESIKDTARVLGRMYDGIQYRGYGQEIVETLAEYASVPVWNGLTNEFHPTQLLADLLTMQEHLPGKAFNEMTLVYAGDARNNMGNSMLEAAALTGLDLRLVAPQACWPEAALVTECRALAQQNGGNITLTEDVAKGVEGADFIYTDVWVSMGEAKEKWAERIALLREYQVNSKMMQLTGNPEVKFLHCLPAFHDDQTTLGKKMAEEFGLHGGMEVTDEVFESAASIVFDQAENRMHTIKAVMVATLSK
notes: as for B9
Consider B10, for which the binding result in data set [2] was “binds”.

B11: OTC (E. coli ornithine transcarbamoylase, argI) (Escherichia coli K-12; E300Q) (protein)
chain: SGFYHKHFLKLLDFTPAELNSLLQLAAKLKADKKSGKEEAKLTGKNIALIFEKDSTRTRCSFEVAAYDQGARVTYLGPSGSQIGHKESIKDTARVLGRMYDGIQYRGYGQEIVETLAEYASVPVWNGLTNEFHPTQLLADLLTMQEHLPGKAFNEMTLVYAGDARNNMGNSMLEAAALTGLDLRLVAPQACWPEAALVTECRALAQQNGGNITLTEDVAKGVEGADFIYTDVWVSMGEAKEKWAERIALLREYQVNSKMMQLTGNPEVKFLHCLPAFHDDQTTLGKKMAEEFGLHGGMQVTDEVFESAASIVFDQAENRMHTIKAVMVATLSK
notes: as for B1
In the case of B11, in “purified protein [3]”, the Michaelis-Menten constant (Km) was 330 ± 100 µM, the kcat came out at 5.1 s⁻¹ and the kcat/Km came to 16000 M⁻¹ s⁻¹. Moreover, in the data set “purified protein [1]” (ornithine 3 mM), the Michaelis constant (Km) is 340 ± 110 µM, the kcat was 4.6 ± 1 s⁻¹ and the kcat/Km was 14000 ± 3300 M⁻¹ s⁻¹.

B12: Escherichia coli ornithine transcarbamoylase (OTC) variant Y229S, His-tagged (enzyme, E. coli)
chain: SGFYHKHFLKLLDFTPAELNSLLQLAAKLKADKKSGKEEAKLTGKNIALIFEKDSTRTRCSFEVAAYDQGARVTYLGPSGSQIGHKESIKDTARVLGRMYDGIQYRGYGQEIVETLAEYASVPVWNGLTNEFHPTQLLADLLTMQEHLPGKAFNEMTLVYAGDARNNMGNSMLEAAALTGLDLRLVAPQACWPEAALVTECRALAQQNGGNITLTEDVAKGVEGADFISTDVWVSMGEAKEKWAERIALLREYQVNSKMMQLTGNPEVKFLHCLPAFHDDQTTLGKKMAEEFGLHGGMEVTDEVFESAASIVFDQAENRMHTIKAVMVATLSK
notes: as for B2
As for B12, the binding result in data set [2] is reported as “binds”.

The record behind these values is PMC7004355 (PLoS ONE, 2020).
